Our source for the Kd values is paper PMC7397868, “System-wide analyses of the fission yeast poly(A)+ RNA interactome reveal insights into organization and function of RNA–protein complexes”.

The target in this data set is T1, Cdk9;Pch1 (Schizosaccharomyces …, UniProt Q96WV9;O74627 1-591;1-342, |).
T1 sequence 1: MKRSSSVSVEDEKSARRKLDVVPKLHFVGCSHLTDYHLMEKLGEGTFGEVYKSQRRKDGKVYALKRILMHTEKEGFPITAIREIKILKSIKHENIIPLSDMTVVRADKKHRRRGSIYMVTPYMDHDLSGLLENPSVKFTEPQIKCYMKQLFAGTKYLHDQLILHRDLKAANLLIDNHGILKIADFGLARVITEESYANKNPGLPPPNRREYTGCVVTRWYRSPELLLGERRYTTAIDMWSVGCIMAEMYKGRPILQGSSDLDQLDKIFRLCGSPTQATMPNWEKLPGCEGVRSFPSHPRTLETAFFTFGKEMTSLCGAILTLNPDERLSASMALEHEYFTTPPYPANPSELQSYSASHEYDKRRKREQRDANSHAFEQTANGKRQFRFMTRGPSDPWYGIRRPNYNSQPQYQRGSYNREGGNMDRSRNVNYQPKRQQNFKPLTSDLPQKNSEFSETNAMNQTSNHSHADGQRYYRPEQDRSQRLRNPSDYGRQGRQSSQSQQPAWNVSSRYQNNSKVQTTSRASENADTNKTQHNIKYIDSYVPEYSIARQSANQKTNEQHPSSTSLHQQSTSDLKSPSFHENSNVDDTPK
T1 sequence 2: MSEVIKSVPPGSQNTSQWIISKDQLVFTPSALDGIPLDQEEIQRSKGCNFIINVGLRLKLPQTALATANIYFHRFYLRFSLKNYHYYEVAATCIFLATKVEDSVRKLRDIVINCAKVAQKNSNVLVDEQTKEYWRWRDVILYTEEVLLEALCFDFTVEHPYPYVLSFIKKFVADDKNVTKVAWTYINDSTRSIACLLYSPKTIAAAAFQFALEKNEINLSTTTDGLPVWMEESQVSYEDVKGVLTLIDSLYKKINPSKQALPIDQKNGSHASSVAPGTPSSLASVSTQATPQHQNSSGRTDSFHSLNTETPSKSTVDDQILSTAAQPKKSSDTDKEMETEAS
The data set is described as follows: fluorescence anisotropy; 8 nM RNA; four-parameter logistic fit with Hill slope; 20 mM HEPES 7.5, 150 mM NaCl, 0.5 mM MgCl2, 0.5 mM Mg(OAc)2, 1 mM 2-mercaptoethanol; 20 min at RT, read at 25 C. To be noted: protein: recombinant;recombinant; tags: none stated;N-terminal His-TEV, His-tag cleaved with TEV; copies: 1;1; single strand; heated 5 min at 95 C before use. On the technique in general: Polarisation of emitted light reports the rotation of a fluorescent probe.

B1: generic FAM-labeled RNA oligo (ssRNA)
RNA: AUUAGUAAAAUAUAUGCAUAAAGACCAGGC
By Kd is commonly meant the concentration at which binding is half-saturated. Turning to B1, the equilibrium dissociation constant (Kd) stood at 0.047 ± 0.0017 µM.
